Article PMC2172336 (The Journal of Cell Biology, 2004)
Like-named read-outs stand apart in the source and are kept apart here.

B3: Fus3 (wild type), in vitro translated, 35S-labelled (enzyme, S. cerevisiae, UniProt P16892 1-353, looked up)
chain: MPKRIVYNISSDFQLKSLLGEGAYGVVCSATHKPTGEIVAIKKIEPFDKPLFALRTLREIKILKHFKHENIITIFNIQRPDSFENFNEVYIIQELMQTDLHRVISTQMLSDDHIQYFIYQTLRAVKVLHGSNVIHRDLKPSNLLINSNCDLKVCDFGLARIIDESAADNSEPTGQQSGMTEYVATRWYRAPEVMLTSAKYSRAMDVWSCGCILAELFLRRPIFPGRDYRHQLLLIFGIIGTPHSDNDLRCIESPRAREYIKSLPMYPAAPLEKMFPRVNPKGIDLLQRMLVFDPAKRITAKEALEHPYLQTYHDPNDEPEGEPIPPSFFEFDHYKEALTTKDLKKLIWNEIFS
modifications: [35S]methionine label
B4: GST-Dig2_(98-114) (domain or fragment, S. cerevisiae, UniProt Q03373 98-114, looked up)
chain: SLKRKRVPPALNFSDIQ
B5: GST-Ste7_(1-98) (domain or fragment, S. cerevisiae, UniProt P06784 1-98, looked up)
chain: MFQRKTLQRRNLKGLNLNLHPDVGNNGQLQEKTETHQGQSRIEGHVMSNINAIQNNSNLFLRRGIKKKLTLDAFGDDQAISKPNTVVIQQPQNEPVLV
B6: GST-Ste5_(241-336) (domain or fragment, S. cerevisiae, UniProt P32917 241-336, looked up)
chain: PENDELKDILISDFLIHKIPDSELSITPQSRFPPYSPLLPPFGLSYTPVERQTIYSQAPSLNPNLILAAPPKERNQIPQKKSNYTFLHSPLGHRRI
B9: Kss1 (wild type), in vitro translated, 35S-labelled (enzyme, S. cerevisiae, UniProt P14681 1-368, looked up)
chain: MARTITFDIPSQYKLVDLIGEGAYGTVCSAIHKPSGIKVAIKKIQPFSKKLFVTRTIREIKLLRYFHEHENIISILDKVRPVSIDKLNAVYLVEELMETDLQKVINNQNSGFSTLSDDHVQYFTYQILRALKSIHSAQVIHRDIKPSNLLLNSNCDLKVCDFGLARCLASSSDSRETLVGFMTEYVATRWYRAPEIMLTFQEYTTAMDIWSCGCILAEMVSGKPLFPGRDYHHQLWLILEVLGTPSFEDFNQIKSKRAKEYIANLPMRPPLPWETVWSKTDLNPDMIDLLDKMLQFNPDKRISAAEALRHPYLAMYHDPSDEPEYPPLNLDDEFWKLDNKIMRPEEEEEVPIEMLKDMLYDELMKTME
modifications: [35S]methionine label

Key:
[1] = biological target: B9; experiment: pull-down
[2] = biological target: T1, Kss1-GBD (wild-type Kss1 fused to the Gal4 DNA-binding domain) (S. cerevisiae, UniProt P14681 1-368); experiment: two-hybrid
T1 sequence (looked up): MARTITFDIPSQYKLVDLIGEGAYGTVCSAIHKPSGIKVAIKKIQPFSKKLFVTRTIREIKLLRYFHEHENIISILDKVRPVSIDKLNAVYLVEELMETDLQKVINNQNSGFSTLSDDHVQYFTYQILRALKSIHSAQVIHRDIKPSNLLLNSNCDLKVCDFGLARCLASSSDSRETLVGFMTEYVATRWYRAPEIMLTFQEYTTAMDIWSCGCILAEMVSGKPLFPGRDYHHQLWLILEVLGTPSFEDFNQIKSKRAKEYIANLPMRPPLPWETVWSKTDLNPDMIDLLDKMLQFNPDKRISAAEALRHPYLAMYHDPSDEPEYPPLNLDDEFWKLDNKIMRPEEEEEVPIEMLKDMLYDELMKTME

GST-Dig1_(93-111) = biological target: T2, GST-Dig1_(93-111) (S. cerevisiae, UniProt Q03063 93-111); experiment: pull-down
T2 chain (looked up): KKSLKRGRVPAPLNLSDSN

GST-Dig2_(98-114) = biological target: B4; experiment: pull-down
GST-Ste7_(1-98) = biological target: B5; experiment: pull-down
GST-Dig1_(213-452) = biological target: T3, GST-Dig1_(213-452) (S. cerevisiae, UniProt Q03063 213-452); experiment: pull-down
T3 sequence (looked up): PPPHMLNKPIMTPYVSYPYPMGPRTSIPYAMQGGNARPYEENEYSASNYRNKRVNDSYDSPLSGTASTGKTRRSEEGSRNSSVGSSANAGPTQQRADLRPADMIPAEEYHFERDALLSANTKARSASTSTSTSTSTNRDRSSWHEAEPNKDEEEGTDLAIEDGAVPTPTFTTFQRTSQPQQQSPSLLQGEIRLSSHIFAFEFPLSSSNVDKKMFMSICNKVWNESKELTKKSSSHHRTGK

GST-Ste5_(241-336) = biological target: B6; experiment: pull-down
[3] = biological target: B3; experiment: pull-down
[4] = biological target: B3; experiment: pull-down; remark: listed apart in the source
[5] = biological target: B9; experiment: pull-down; remark: listed apart in the source

B1: GST-Ste12_(298-473) (domain or fragment, S. cerevisiae, UniProt P13574 298-473, looked up)
chain: AKGRDEEDFPLDYFPVSVEYPTEENAFDPFPPQAFTPAAPSMPISYDNVNERDSMPVNSLLNRYPYQLSVAPTFPVPPSSSRQHFMTNRDFYSSNNNKEKLVSPSDPTSYMKYDEPVMDFDESRPNENCTNAKSHNSGQQTKQHQLYSNNFQQSYPNGMVPGYYPKMPYNPMGGDP
Kd [1]: ~2000 nM

B2: Ste12-GAD (Ste12 fused to the Gal4 transcriptional activation domain) (natural protein, S. cerevisiae, UniProt P13574 1-688, looked up)
chain: MKVQITNSRTEEILKVQANNENDEVSKATPGEVEESLRLIGDLKFFLATAPVNWQENQIIRRYYLNSGQGFVSCVFWNNLYYITGTDIVKCCLYRMQKFGREVVQKKKFEEGIFSDLRNLKCGIDATLEQPKSEFLSFLFRNMCLKTQKKQKVFFWFSVAHDKLFADALERDLKRESLNQPSTTKPVNEPALSFSYDSSSDKPLYDQLLQHLDSRRPSSTTKSDNSPPKLESENFKDNELVTVTNQPLLGVGLMDDDAPESPSQINDFIPQKLIIEPNTLELNGLTEETPHDLPKNTAKGRDEEDFPLDYFPVSVEYPTEENAFDPFPPQAFTPAAPSMPISYDNVNERDSMPVNSLLNRYPYQLSVAPTFPVPPSSSRQHFMTNRDFYSSNNNKEKLVSPSDPTSYMKYDEPVMDFDESRPNENCTNAKSHNSGQQTKQHQLYSNNFQQSYPNGMVPGYYPKMPYNPMGGDPLLDQAFYGADDFFFPPEGCDNNMLYPQTATSWNVLPPQAMQPAPTYVGRPYTPNYRSTPGSAMFPYMQSSNSMQWNTAVSPYSSRAPSTTAKNYPPSTFYSQNINQYPRRRTVGMKSSQGNVPTGNKQSVGKSAKISKPLHIKTSAYQKQYKINLETKARPSAGDEDSAHPDKNKEISMPTPDSNTLVVQSEEGGAHSLEVDTNRRSDKNLPDAT
fold above background (two-hybrid reporter) [2]: 4 fold

B3
fold higher affinity than Kss1 for the same D-site (GST-Dig1_(93-111)): ~17 fold
fold higher affinity than Kss1 for the same D-site (GST-Dig2_(98-114)): ~17 fold
fold higher affinity than for the Dig1 D-site (GST-Dig2_(98-114)): ~3 fold
percent of input bound (GST-Ste7_(1-98)): 14 % of input
percent of input bound (GST-Dig1_(213-452)): 0.6 % of input
percent of input bound (GST-Ste5_(241-336)): 12.6 % of input

B4
Kd [3]: ~1000 nM

B5
Kd [4]: ~100 nM
Kd [5]: ~100 nM

B6
Kd [4]: ~1000 nM
Kd [5]: ~6500 nM

B7: Fus3-7m2 (D317N), in vitro translated, 35S-labelled (enzyme, S. cerevisiae, UniProt P16892 1-353, looked up)
chain: MPKRIVYNISSDFQLKSLLGEGAYGVVCSATHKPTGEIVAIKKIEPFDKPLFALRTLREIKILKHFKHENIITIFNIQRPDSFENFNEVYIIQELMQTDLHRVISTQMLSDDHIQYFIYQTLRAVKVLHGSNVIHRDLKPSNLLINSNCDLKVCDFGLARIIDESAADNSEPTGQQSGMTEYVATRWYRAPEVMLTSAKYSRAMDVWSCGCILAELFLRRPIFPGRDYRHQLLLIFGIIGTPHSDNDLRCIESPRAREYIKSLPMYPAAPLEKMFPRVNPKGIDLLQRMLVFDPAKRITAKEALEHPYLQTYHDPNNEPEGEPIPPSFFEFDHYKEALTTKDLKKLIWNEIFS
modifications: [35S]methionine label
percent of wild-type binding (GST-Ste7_(1-98)): < 1 % of wild-type

B8: full-length Dig2-GAD (natural protein, S. cerevisiae, UniProt Q03373 1-323, looked up)
chain: MNKEEQEDPQQEQISTVQENDPRNLQQLGMLLVSPGLDEDRLSEKMISKIKKSRDIEKNQKLLISRLSQKEEDHSGKPPTITTSPAEKTVPFKSLNHSLKRKRVPPALNFSDIQASSHLHGSKSAPPNITRFPQHKNSLRVRYMGRMAPTNQDYHPSVANSYMTATYPYPYTGLPPVPCYPYSSTPTQTHAYEGYYSPMYPGPLYNNGIIPADYHAKRKKLAGRSPHLEDLTSRKRTFVSKHHNGDPIISKTDEDIECSVTKNSLSEGASLNDDADDDNDKERIIIGEISLYDDVFKFEVRDDKNDYMKACETIWTEWHNLKK
fold above background (two-hybrid reporter) [2]: 23 fold

B9
fold higher affinity than for the Dig1 D-site (GST-Dig2_(98-114)): ~3 fold
percent of input bound (GST-Ste7_(1-98)): 9 % of input
percent of input bound (GST-Dig1_(213-452)): 1.3 % of input
percent of input bound (GST-Ste5_(241-336)): 3.7 % of input

B10: full-length Dig1-GAD (natural protein, S. cerevisiae, UniProt Q03063 1-452, looked up)
chain: MAVSARLRTTAEDTSIAKSTQDPIGDTEISVANAKGSSDSNIKNSPGGNSVGQESELEHVPEEDDSGDKEADHEDSETATAKKRKAQPLKNPKKSLKRGRVPAPLNLSDSNTNTHGGNIKDGNLASSNSAHFPPVANQNVKSAPAQVTQHSKFQPRVQYLGKASSRQSIQVNNSSNSYGKPHMPSAGIMSAMNPYMPMNRYIMSPYYNPYGIPPPHMLNKPIMTPYVSYPYPMGPRTSIPYAMQGGNARPYEENEYSASNYRNKRVNDSYDSPLSGTASTGKTRRSEEGSRNSSVGSSANAGPTQQRADLRPADMIPAEEYHFERDALLSANTKARSASTSTSTSTSTNRDRSSWHEAEPNKDEEEGTDLAIEDGAVPTPTFTTFQRTSQPQQQSPSLLQGEIRLSSHIFAFEFPLSSSNVDKKMFMSICNKVWNESKELTKKSSSHHRTGK
fold above background (two-hybrid reporter) [2]: 3 fold
